Data published in paper PMC5772059.

Biological target: N2Bus phosphorylated by PKA catalytic subunit or cGMP-activated PKG
Test: pull-down; GST pull-down: purified protein incubated with a GST-fusion protein immobilised on glutathione sepharose beads, 4 °C, 1.5 h; washes in high and low salt buffer; SDS-PAGE and western blot

fold binding against unphosphorylated N2Bus: 2 to 3 times
B1: recombinant human full-length PP5 (enzyme)
chain: MAMAEGERTECAEPPRDEPPADGALKRAEELKTQANDYFKAKDYENAIKFYSQAIELNPSNAIYYGNRSLAYLRTECYGYALGDATRAIELDKKYIKGYYRRAASNMALGKFRAALRDYETVVKVKPHDKDAKMKYQECNKIVKQKAFERAIAGDEHKRSVVDSLDIESMTIEDEYSGPKLEDGKVTISFMKELMQWYKDQKKLHRKCAYQILVQVKEVLSKLSTLVETTLKETEKITVCGDTHGQFYDLLNIFELNGLPSETNPYIFNGDFVDRGSFSVEVILTLFGFKLLYPDHFHLLRGNHETDNMNQIYGFEGEVKAKYTAQMYELFSEVFEWLPLAQCINGKVLIMHGGLFSEDGVTLDDIRKIERNRQPPDSGPMCDLLWSDPQPQNGRSISKRGVSCQFGPDVTKAFLEENNLDYIIRSHEVKAEGYEVAHGGRCVTVFSAPNYCDQMGNKASYIHLQGSDLRPQFHQFTAVPHPNVKPMAYANTLLQLGMM
